In general, Ki refers to a measure of affinity in units of concentration, obtained from inhibition or displacement. One may read the IC50 as the concentration that inhibits the measured activity by half. A lower IC50 goes with greater potency in that assay.

Ends that are not written are not given here. A value given as a limit tells only on which side of the number the result lay.

Test [1] has as its target T1, human GIP receptor (human, UniProt P48546 22-466).
T1 sequence (looked up): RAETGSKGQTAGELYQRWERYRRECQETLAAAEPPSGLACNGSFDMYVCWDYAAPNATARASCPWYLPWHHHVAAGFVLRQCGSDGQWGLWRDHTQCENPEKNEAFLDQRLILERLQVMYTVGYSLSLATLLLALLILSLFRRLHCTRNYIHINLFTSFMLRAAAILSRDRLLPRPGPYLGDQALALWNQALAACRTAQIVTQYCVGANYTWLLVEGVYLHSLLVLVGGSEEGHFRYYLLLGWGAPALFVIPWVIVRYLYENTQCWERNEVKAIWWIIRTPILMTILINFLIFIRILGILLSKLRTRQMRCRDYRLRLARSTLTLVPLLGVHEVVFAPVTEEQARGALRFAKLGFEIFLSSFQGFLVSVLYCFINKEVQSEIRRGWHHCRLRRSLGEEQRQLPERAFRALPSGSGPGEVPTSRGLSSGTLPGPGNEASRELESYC
In words: cell-based or functional assay.

Test [2] concerns the target T1, human GIP receptor. In words: cell-based or functional assay. The source holds these as a separate data set.
In test [3] the target is T1, human GIP receptor. Kind of test: cell-based or functional assay. This is another data set of the same source.
The target in test [4] is T1, human GIP receptor. Kind of test: competition binding vs 125I-GIP(1-42), COS-7 cells transfected with human GIP receptor. Here is the method: (§1) Nonspecific binding was determined as the binding of radioligand to untransfected cells. All determinations were made in duplicates, and all experiments repeated at least three times. The samples were analyzed for radioactivity using a Wallac Wizard 1470 Gamma Counter (GMI Inc., Minnesota, USA). The number “n” refers to individual experiments with separate transfections although from same cell line.
(§2) Statistical analyses (unpaired t-tests) of two parameters were also performed with GraphPad Prism 6.0. […] Kd is the dissociation constant determined by homologous receptor binding.

The target of test [5] is T1, human GIP receptor. Kind of test: competition binding vs 125I-GIP(1-30)NH2, COS-7 cells transfected with human GIP receptor. On the procedure:
as §1, §2

Test [6] concerns the target T1, human GIP receptor. In words: competition binding vs 125I-GIP(3-30)NH2, COS-7 cells transfected with human GIP receptor. Here is the method: as §1, §2
Test [7] has as its target T1, human GIP receptor. In words: homologous competition binding vs 125I-GIP(2-30)NH2, COS-7 cells transfected with human GIP receptor. Here is the method:
as §1

The target in test [8] is T1, human GIP receptor. In words: competition binding vs 125I-GIP(2-30)NH2, COS-7 cells transfected with human GIP receptor. On the procedure:
as §1, §2

Test [9] has as its target T1, human GIP receptor. Kind of test: homologous competition binding vs 125I-GIP(3-30)NH2, COS-7 cells transfected with human GIP receptor. Here is the method: as §1
Test [10] addresses T1, human GIP receptor. Kind of test: competition binding vs 125I-hGIP, COS-7 cells transfected with hGIPR.
Description: COS-7 cells were seeded in clear 96-well plates the day after transfection using a number of cells/well that obtained 5-10% specific binding of the added radioactive ligand. […] After incubation, the cells were washed twice in ice-cold binding buffer and lysed using 200 mM NaOH with 1% SDS for 30 min. Nonspecific binding was determined as the binding of tracer to untransfected cells.

Consider EGTFISDYSIAMEKIAQQDFVNWLLAQK [hGIP(3-30)D15EH18A], for which the “Ki (Schild plot, cAMP accumulation)” value in the test with human GIP receptor [1] worked out at 7.9 nM.

B1: GIP(9-30)NH2 (peptide)
peptide: DYSIAMDKIHQQDFVNWLLAQK-NH2
notes: also called human GIP(9-30)NH2; hGIP(9-30)
For B1, the “right-shift of antagonistic potency compared to GIP(3-30)NH2” value with human GIP receptor [2] stood at 38 fold. Further, in the test with human GIP receptor [3], the “IC50 (inhibition of GIP(1-42) induced cAMP accumulation)” value stood at 450 nM and the “logIC50 (inhibition of GIP(1-42) induced cAMP accumulation)” value was -6.35. In the test with human GIP receptor [4], affinity was put at a Ki of 307 nM, the “fold change of GIP(1-30)NH2 affinity” value turned out to be 345 fold, the “fold lower affinity compared to GIP(1-30)NH2” value was over 300 fold and the logIC was -6.51.

B2: GIP(4-30)NH2 (peptide)
peptide: GTFISDYSIAMDKIHQQDFVNWLLAQK-NH2
notes: also called human GIP(4-30)NH2; hGIP4-30
Regarding B2, in the test with human GIP receptor [3], the “IC50 (inhibition of GIP(1-42) induced cAMP accumulation)” value stood at 108 nM and the “logIC50 (inhibition of GIP(1-42) induced cAMP accumulation)” value was -6.97. Further, in the test with human GIP receptor [4], the affinity corresponds to a Ki of 21.5 nM, the “fold change of GIP(1-30)NH2 affinity” value came to 24 fold and the logIC was -7.67.

B3: GIP(2-30)NH2 (peptide)
peptide: AEGTFISDYSIAMDKIHQQDFVNWLLAQK-NH2
notes: also called human GIP(2-30)NH2; hGIP(2-30)
For B3, in the test with human GIP receptor [2], the “fold lower potency than GIP(1-30)NH2 (cAMP accumulation)” value is over 3000 fold; the “log EC50 (cAMP accumulation)” value is -8.43; the “potency, EC50 (cAMP accumulation)” value amounted to 3.7 nM. In addition, in the test with human GIP receptor [3], the “IC50 (inhibition of GIP(1-42) induced cAMP accumulation)” value turned out to be 21.7 nM and the “logIC50 (inhibition of GIP(1-42) induced cAMP accumulation)” value was -7.66. In the test with human GIP receptor [4], the affinity corresponds to a Ki of 14.3 nM, the “fold change of GIP(1-30)NH2 affinity” value stood at 16 fold and the logIC is -7.85. In the test with human GIP receptor [5], the IC50 stood at 26 nM, the “fold change GIP(1-30)NH2” value was determined as 84.3 fold and the “log (IC50)” value was -7.59. In the test with human GIP receptor [6], the IC50 amounted to 7.7 nM, the “fold change GIP(1-30)NH2” value turned out to be 4.6 fold and the “log (IC50)” value was -8.11. For the same molecule, in the test with human GIP receptor [7], the IC50 was found to be 2.7 nM, the “fold change GIP(1-30)NH2” value was determined as 10.5 fold and the “log (IC50)” value is -8.57.

B4: GIP(3-30)NH2 (peptide)
peptide: EGTFISDYSIAMDKIHQQDFVNWLLAQK-NH2
notes: also called human GIP(3-30)NH2; hGIP(3-30)NH2
Consider B4, for which, in the test with human GIP receptor [2], the “fold shift in the dose-response curve of human GIP(1-42) by 1 µM antagonist” value worked out at 281 fold. Moreover, in the test with human GIP receptor [3], the “IC50 (inhibition of GIP(1-42) induced cAMP accumulation)” value came to 11.8 nM and the “logIC50 (inhibition of GIP(1-42) induced cAMP accumulation)” value was -7.93. For the same molecule, in the test with human GIP receptor [4], the affinity corresponds to a Ki of 2.3 nM, the “fold change of GIP(1-30)NH2 affinity” value stood at 2.6 fold, the “fold decrease in affinity compared to GIP(1-30)NH2” value is 2.3 fold and the logIC is -8.63. Besides, in the test with human GIP receptor [5], the IC50 was 4.4 nM, the “fold change GIP(1-30)NH2” value is 14.5 fold and the “log (IC50)” value was -8.35. In addition, in the test with human GIP receptor [8], the IC50 worked out at 0.76 nM, the “fold change GIP(1-30)NH2” value was determined as 1.6 fold and the “log (IC50)” value is -9.12. Besides, in the test with human GIP receptor [9], the IC50 was found to be 3.4 nM, the “fold change GIP(1-30)NH2” value came out at 2 fold and the “log (IC50)” value was -8.47.

B5: GIP(8-30)NH2 (peptide)
peptide: SDYSIAMDKIHQQDFVNWLLAQK-NH2
notes: also called human GIP(8-30)NH2; hGIP(8-30)
Turning to B5, in the test with human GIP receptor [3], the “IC50 (inhibition of GIP(1-42) induced cAMP accumulation)” value stood at 133 nM and the “logIC50 (inhibition of GIP(1-42) induced cAMP accumulation)” value is -6.88. Also, in the test with human GIP receptor [4], the Ki was 79 nM, the “fold change of GIP(1-30)NH2 affinity” value was 89 fold and the logIC was -7.1.

For the molecule EGTFISDYSIAMDAIAQQDFVNWLLAQK [hGIP(3-30)K16AH18A], in the test with human GIP receptor [1], the “Ki (Schild plot, cAMP accumulation)” value was 15 nM.

Consider EGTFISDYSIAMDKIHQQDFVNWLLAQK (also called human GIP3-30) [hGIP(3-30)], for which the “Ki (Schild plot, cAMP accumulation)” value with human GIP receptor [1] was determined as 15 nM. In the test with human GIP receptor [10], this molecule yielded an IC50 of 16 nM.

Consider EGTFISDYSIAMDKIAQQDFVNWLLAQK (Synthetic variant of hGIP(3-30)) [hGIP(3-30)H18A], for which the “Ki (Schild plot, cAMP accumulation)” value with human GIP receptor [1] came out at 35 nM. In addition, the IC50 with human GIP receptor [10] came to 2 nM.

In the case of EGTFISDYSIAMDKIKQQDFVNWLLAQK (Synthetic variant of hGIP(3-30)) [hGIP(3-30)H18K], in the test with human GIP receptor [1], the “Ki (Schild plot, cAMP accumulation)” value worked out at 37 nM. The same molecule yielded an IC50 with human GIP receptor [10] of 7.8 nM.

B6: GIP(5-30)NH2 (peptide)
peptide: TFISDYSIAMDKIHQQDFVNWLLAQK-NH2
notes: also called human GIP(5-30)NH2; hGIP5-30
As to B6, in the test with human GIP receptor [3], the “IC50 (inhibition of GIP(1-42) induced cAMP accumulation)” value was determined as 11.9 nM and the “logIC50 (inhibition of GIP(1-42) induced cAMP accumulation)” value is -7.92. In the test with human GIP receptor [4], the Ki stood at 5.9 nM, the “fold change of GIP(1-30)NH2 affinity” value was 6.6 fold and the logIC was -8.23.

B7: GIP(6-30)NH2 (peptide)
peptide: FISDYSIAMDKIHQQDFVNWLLAQK-NH2
notes: also called human GIP(6-30)NH2; hGIP(6-30)
On to B7, for which, in the test with human GIP receptor [3], the “IC50 (inhibition of GIP(1-42) induced cAMP accumulation)” value amounted to 342 nM and the “logIC50 (inhibition of GIP(1-42) induced cAMP accumulation)” value was -6.47. Further, in the test with human GIP receptor [4], the Ki came to 347 nM, the “fold change of GIP(1-30)NH2 affinity” value was determined as 391 fold, the “fold decrease in affinity compared to GIP(1-30)NH2” value amounted to 347 fold and the “fold lower affinity compared to GIP(1-30)NH2” value was over 300 fold. In the test with human GIP receptor [4], this molecule gave a logIC of -6.46. In the test with human GIP receptor [5], the IC50 turned out to be 1060 nM, the “fold change GIP(1-30)NH2” value turned out to be 3500 fold and the “log (IC50)” value was -5.97. In the test with human GIP receptor [8], the IC50 was found to be 340 nM, the “fold change GIP(1-30)NH2” value worked out at 707 fold and the “log (IC50)” value was -6.47. Also, in the test with human GIP receptor [6], the IC50 is 370 nM, the “fold change GIP(1-30)NH2” value amounted to 223 fold and the “log (IC50)” value is -6.43.

B8: GIP(7-30)NH2 (peptide)
peptide: ISDYSIAMDKIHQQDFVNWLLAQK-NH2
notes: also called human GIP(7-30)NH2; hGIP(7-30)
For the molecule B8, in the test with human GIP receptor [4], the logIC is -7.58.

In the case of EGTFISDYSIAMDKIHQQDFVNWLLAQKGKKNDWKHNITQ [human GIP(3-42)], in the test with human GIP receptor [2], the “fold lower antagonistic potency than human GIP(3-30)NH2 (cAMP accumulation)” value came out at 26 fold and the “fold shift in the dose-response curve of human GIP(1-42) by 1 µM antagonist” value was determined as 7.3 fold.

The record behind these values is US20210340211A1 (UNIVERSITY OF COPENHAGEN, published 2021).
